Results published in patent US20200317768A1 (published 2020).

T1: human FcγRIIb constitutively expressed on MDCK cells (human, UniProt P31994 43-310)
T1 sequence (looked up): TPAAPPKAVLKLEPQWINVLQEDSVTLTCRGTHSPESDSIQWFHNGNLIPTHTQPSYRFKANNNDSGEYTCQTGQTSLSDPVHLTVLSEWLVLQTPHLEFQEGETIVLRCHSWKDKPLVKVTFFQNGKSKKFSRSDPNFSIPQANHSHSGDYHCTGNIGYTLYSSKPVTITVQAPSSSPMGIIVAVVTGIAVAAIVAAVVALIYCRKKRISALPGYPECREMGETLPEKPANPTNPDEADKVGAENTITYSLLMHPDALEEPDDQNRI

T2: soluble mouse FcγRII, His-tagged (mouse, UniProt P08101 30-210, limits assumed)
T2 construct: Captured on the chip by an anti-His antibody
T2 sequence (looked up): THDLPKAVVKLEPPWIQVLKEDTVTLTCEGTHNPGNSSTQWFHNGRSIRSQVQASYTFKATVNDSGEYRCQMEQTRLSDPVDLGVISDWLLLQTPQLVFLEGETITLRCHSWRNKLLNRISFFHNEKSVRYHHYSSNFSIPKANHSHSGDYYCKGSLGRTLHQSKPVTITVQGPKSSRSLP

B1: M103205H795-P1375m/M103202L889-SK1 (antibody, human IgG1, kappa)
heavy: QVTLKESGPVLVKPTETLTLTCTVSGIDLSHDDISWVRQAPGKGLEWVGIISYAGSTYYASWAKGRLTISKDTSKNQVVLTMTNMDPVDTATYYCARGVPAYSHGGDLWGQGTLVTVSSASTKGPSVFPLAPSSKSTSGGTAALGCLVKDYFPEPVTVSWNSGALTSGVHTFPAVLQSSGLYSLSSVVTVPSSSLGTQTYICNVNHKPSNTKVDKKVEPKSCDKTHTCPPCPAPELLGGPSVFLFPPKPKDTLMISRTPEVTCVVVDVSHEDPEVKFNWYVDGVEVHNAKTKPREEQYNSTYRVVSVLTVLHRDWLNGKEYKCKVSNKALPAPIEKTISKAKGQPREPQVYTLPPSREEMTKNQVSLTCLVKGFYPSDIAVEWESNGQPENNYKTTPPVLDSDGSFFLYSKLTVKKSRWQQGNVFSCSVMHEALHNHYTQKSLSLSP
light: DIVMTQSPATLSLSPGERATLSCTSSQSVYHANWLSWFQQKPGQPPKLLIYWASTLAYGVPSRFSGSGSGTDFTLTISSLQPEDAATYYCAGGYGGGRYAFGQGTKVEIKRTVAAPSVFIFPPSDEQLKSGTASVVCLLNNFYPREAKVQWKVDNALQSGNSQESVTEQDSKDSTYSLSSTLTLSKADYEKHKVYACEVTHQGLSSPVTKSFNRGEC
notes: also called MS1032LO06-P1375m
B2: M103205H795-P1378m/M103202L889-SK1 (antibody, human IgG1, kappa)
heavy: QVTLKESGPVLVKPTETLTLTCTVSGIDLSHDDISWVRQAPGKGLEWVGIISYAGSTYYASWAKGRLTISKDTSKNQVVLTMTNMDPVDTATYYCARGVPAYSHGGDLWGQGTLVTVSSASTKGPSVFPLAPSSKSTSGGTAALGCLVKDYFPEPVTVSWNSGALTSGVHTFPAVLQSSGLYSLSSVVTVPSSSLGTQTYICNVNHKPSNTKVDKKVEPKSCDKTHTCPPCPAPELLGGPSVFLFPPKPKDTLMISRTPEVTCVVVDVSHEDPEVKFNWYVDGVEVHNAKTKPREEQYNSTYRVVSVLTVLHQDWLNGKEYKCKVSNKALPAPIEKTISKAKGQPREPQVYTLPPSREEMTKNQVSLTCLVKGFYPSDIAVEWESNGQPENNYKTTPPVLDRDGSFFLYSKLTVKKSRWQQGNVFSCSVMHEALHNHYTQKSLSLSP
light: B1 light
notes: also called MS1032LO06-P1378m
B3: M103205H795-P1383m/M103202L889-SK1 (antibody, human IgG1, kappa)
heavy: QVTLKESGPVLVKPTETLTLTCTVSGIDLSHDDISWVRQAPGKGLEWVGIISYAGSTYYASWAKGRLTISKDTSKNQVVLTMTNMDPVDTATYYCARGVPAYSHGGDLWGQGTLVTVSSASTKGPSVFPLAPSSKSTSGGTAALGCLVKDYFPEPVTVSWNSGALTSGVHTFPAVLQSSGLYSLSSVVTVPSSSLGTQTYICNVNHKPSNTKVDKKVEPKSCDKTHTCPPCPAPELLGGPSVFLFPPKPKDTLMISRTPEVTCVVVDVSHEDPEVKFNWYVDGVEVHNAKTKPREEQYNSTYRVVSVLTVLHRDWLNGKEYKCKVSNKALPAPIEKTISKAKGQPREPQVYTLPPSREEMTKNQVSLTCLVKGFYPSDIAVEWESNGQPENNYKTTPPVLDRDGSFFLYSKLTVKKSRWQQGNVFSCSVMHEALHNHYTQKSLSLSP
light: B1 light
notes: also called MS1032LO06-P1383m
B4: M103205H795-P1484m/M103202L889-SK1 (antibody, human IgG1, kappa)
heavy: not shown
light: B1 light
B5: M103205H795-P1485m/M103202L889-SK1 (antibody, human IgG1, kappa)
heavy: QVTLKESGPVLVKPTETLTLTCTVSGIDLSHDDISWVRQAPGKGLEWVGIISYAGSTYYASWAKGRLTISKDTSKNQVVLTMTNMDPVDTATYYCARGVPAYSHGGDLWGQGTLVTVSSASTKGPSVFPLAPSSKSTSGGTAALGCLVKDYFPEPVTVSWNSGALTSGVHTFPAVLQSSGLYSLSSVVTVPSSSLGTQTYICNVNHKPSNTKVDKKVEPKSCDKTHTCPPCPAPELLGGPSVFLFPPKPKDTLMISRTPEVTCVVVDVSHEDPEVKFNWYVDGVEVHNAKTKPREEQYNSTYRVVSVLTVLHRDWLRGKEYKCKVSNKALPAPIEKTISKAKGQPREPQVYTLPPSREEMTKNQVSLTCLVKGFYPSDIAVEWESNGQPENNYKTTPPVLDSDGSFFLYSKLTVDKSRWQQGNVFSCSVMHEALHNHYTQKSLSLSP
light: B1 light
B6: M103205H795-P1486m/M103202L889-SK1 (antibody, human IgG1, kappa)
heavy: not shown
light: B1 light
B7: M103205H795-P1487m/M103202L889-SK1 (antibody, human IgG1, kappa)
heavy: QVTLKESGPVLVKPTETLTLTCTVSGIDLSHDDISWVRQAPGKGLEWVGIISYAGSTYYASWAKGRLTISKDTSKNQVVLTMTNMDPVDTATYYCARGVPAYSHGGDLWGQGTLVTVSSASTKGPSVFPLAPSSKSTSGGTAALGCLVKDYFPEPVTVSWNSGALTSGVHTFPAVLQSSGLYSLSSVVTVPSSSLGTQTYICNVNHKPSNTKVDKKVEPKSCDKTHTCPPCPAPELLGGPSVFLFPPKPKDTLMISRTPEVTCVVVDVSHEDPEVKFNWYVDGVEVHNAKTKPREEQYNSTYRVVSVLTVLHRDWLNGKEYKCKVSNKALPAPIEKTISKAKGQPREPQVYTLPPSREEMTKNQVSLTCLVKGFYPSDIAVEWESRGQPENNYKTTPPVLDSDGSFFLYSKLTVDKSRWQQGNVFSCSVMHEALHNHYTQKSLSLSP
light: B1 light
B8: M103205H795-P1488m/M103202L889-SK1 (antibody, human IgG1, kappa)
heavy: not shown
light: B1 light
B9: M103205H795-P1489m/M103202L889-SK1 (antibody, human IgG1, kappa)
heavy: not shown
light: B1 light
B10: M103205H795-P1490m/M103202L889-SK1 (antibody, human IgG1, kappa)
heavy: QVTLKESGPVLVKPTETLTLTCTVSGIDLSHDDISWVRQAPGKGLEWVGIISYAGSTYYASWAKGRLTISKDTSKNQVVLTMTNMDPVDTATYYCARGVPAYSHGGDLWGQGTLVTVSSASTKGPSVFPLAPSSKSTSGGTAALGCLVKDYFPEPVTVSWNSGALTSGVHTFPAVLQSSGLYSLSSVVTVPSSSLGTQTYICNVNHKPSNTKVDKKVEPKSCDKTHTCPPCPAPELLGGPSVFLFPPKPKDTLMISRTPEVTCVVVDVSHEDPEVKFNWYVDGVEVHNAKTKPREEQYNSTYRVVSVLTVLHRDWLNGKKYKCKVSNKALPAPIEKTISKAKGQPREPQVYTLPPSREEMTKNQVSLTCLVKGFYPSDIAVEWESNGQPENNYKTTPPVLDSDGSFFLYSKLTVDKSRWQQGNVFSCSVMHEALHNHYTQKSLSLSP
light: B1 light
B11: M103205H795-P1491m/M103202L889-SK1 (antibody, human IgG1, kappa)
heavy: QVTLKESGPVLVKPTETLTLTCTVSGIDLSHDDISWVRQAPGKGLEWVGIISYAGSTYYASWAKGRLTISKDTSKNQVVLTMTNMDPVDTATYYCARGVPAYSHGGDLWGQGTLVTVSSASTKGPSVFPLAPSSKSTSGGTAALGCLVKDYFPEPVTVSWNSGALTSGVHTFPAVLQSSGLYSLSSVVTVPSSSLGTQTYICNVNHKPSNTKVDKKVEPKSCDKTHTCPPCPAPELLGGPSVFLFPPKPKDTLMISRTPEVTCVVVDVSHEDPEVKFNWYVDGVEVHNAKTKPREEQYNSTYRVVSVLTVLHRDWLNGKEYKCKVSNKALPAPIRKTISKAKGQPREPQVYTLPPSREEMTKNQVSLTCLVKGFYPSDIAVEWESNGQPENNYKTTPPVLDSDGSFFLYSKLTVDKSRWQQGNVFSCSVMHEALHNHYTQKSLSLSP
light: B1 light
B12: M103205H795-P1492m/M103202L889-SK1 (antibody, human IgG1, kappa)
heavy: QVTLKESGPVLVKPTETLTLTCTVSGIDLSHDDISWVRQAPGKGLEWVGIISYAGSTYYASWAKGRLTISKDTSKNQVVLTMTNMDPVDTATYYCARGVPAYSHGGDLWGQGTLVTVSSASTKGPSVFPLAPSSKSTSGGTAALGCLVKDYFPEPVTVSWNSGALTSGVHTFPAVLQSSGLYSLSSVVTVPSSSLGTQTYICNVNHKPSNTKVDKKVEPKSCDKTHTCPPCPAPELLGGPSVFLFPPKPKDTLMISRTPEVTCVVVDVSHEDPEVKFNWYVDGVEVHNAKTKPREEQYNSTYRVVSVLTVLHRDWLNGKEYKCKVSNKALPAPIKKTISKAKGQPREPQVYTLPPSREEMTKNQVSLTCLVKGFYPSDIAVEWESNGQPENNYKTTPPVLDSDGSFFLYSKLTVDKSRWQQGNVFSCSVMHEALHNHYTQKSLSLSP
light: B1 light
B13: M103205H795-P1493m/M103202L889-SK1 (antibody, human IgG1, kappa)
heavy: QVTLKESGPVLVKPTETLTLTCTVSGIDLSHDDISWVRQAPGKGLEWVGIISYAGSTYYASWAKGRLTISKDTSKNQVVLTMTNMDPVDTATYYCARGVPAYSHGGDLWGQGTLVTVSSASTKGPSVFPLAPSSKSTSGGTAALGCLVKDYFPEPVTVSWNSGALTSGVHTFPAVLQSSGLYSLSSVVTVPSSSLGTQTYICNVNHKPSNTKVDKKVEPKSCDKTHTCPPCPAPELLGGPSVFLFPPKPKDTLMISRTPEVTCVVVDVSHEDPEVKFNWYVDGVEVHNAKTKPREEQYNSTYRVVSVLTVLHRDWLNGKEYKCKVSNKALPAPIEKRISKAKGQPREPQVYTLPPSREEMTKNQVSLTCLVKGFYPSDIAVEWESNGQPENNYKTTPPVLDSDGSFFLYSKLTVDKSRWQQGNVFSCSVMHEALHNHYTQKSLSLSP
light: B1 light
B14: M103205H795-P1494m/M103202L889-SK1 (antibody, human IgG1, kappa)
heavy: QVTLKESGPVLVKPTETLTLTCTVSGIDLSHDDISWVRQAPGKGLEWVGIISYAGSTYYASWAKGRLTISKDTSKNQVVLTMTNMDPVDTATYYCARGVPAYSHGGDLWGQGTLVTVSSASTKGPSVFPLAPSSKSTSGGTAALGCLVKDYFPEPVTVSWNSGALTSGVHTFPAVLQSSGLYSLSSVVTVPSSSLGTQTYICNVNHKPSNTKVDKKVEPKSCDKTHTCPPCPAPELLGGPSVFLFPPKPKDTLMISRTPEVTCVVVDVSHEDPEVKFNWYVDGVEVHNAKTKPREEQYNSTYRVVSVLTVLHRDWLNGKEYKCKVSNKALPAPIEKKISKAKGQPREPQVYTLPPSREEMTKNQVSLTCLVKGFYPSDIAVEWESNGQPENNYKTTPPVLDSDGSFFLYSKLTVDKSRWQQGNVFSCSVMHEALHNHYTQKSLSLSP
light: B1 light
B15: M103205H795-P1495m/M103202L889-SK1 (antibody, human IgG1, kappa)
heavy: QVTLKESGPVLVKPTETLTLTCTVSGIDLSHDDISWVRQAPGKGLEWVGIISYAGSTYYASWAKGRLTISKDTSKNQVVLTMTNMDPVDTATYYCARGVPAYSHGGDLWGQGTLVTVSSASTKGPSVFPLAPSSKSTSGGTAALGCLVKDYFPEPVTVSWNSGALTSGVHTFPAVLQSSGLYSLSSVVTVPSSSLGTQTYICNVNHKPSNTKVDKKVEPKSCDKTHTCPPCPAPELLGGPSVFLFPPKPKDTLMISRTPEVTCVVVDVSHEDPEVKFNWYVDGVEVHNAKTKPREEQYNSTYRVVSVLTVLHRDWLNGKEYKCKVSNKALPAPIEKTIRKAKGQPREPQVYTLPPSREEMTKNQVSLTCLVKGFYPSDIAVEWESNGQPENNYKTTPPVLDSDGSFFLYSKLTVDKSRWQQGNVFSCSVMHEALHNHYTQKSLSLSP
light: B1 light
B16: M103205H795-P1496m/M103202L889-SK1 (antibody, human IgG1, kappa)
heavy: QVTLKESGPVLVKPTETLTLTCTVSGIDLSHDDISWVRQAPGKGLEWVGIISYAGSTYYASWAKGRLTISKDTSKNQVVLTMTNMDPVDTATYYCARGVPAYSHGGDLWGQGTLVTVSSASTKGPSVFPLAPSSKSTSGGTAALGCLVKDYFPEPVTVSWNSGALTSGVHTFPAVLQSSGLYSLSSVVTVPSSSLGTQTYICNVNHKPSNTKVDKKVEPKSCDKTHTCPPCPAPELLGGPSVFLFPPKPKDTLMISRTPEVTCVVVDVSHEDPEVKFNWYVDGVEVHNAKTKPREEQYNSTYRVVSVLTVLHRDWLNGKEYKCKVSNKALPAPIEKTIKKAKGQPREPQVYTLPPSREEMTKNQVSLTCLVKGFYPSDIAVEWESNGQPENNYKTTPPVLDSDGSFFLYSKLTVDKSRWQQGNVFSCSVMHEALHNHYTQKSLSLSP
light: B1 light

Tests used:
[1] = target: T1, human FcγRIIb constitutively expressed …; assay: cell-based or functional assay
[2] = target: T2, soluble mouse FcγRII, His-tagged; assay: SPR, mouse FcgRII-His captured, antigen-antibody complex injected, pH7.4, 25C
Method: Regarding the produced Fc region variant-containing antibodies, binding assays between soluble mouse FcγRII and antigen-antibody complexes were performed using BIACORE® T200 (GE Healthcare). Soluble mouse FcγRII was produced in the form of a His-tagged molecule by a method known to those skilled in the art. An appropriate amount of an anti-His antibody was fixed onto Sensor chip CM5 (GE Healthcare) by the amine coupling method using a His capture kit (GE Healthcare) to capture mouse FcγRII. Next, an antibody-antigen complex and a running buffer (as a reference solution) were injected, and interaction was allowed to take place with the mouse FcγRII captured onto the sensor chip. 20 mM N-(2-Acetamido)-2-aminoethanesulfonic acid, 150 mM NaCl, 1.2 mM CaCl₂, and 0.05% (w/v) TWEEN, 20 at pH7.4 was used as the running buffer, and the respective buffer was also used to dilute the soluble mouse FcγRII. To regenerate the sensor chip, 10 mM glycine-HCl at pH1.5 was used. All measurements were carried out at 25° C. […] To calculate the parameters, the BIACORE® T100 Evaluation Software (GE Healthcare) was used.

Row | Binder | celluar uptake [1] | biacore IC binding [2]
1 | B1 | 3.43 relative to SG1 (=1.00) | 1.21 relative to SG1 (=1.00)
2 | B2 | 3.86 relative to SG1 (=1.00) | 1.23 relative to SG1 (=1.00)
3 | B3 | 5.68 relative to SG1 (=1.00) | 1.41 relative to SG1 (=1.00)
4 | B4 | 0 relative to SG1 (=1.00) | 1.33 relative to SG1 (=1.00)
5 | B5 | 1.88 relative to SG1 (=1.00) | 1.29 relative to SG1 (=1.00)
6 | B6 | 1.52 relative to SG1 (=1.00) | 1.2 relative to SG1 (=1.00)
7 | B7 | 1.23 relative to SG1 (=1.00) | 1.46 relative to SG1 (=1.00)
8 | B8 | 1.45 relative to SG1 (=1.00) | 1.43 relative to SG1 (=1.00)
9 | B9 | 1.68 relative to SG1 (=1.00) | 1.24 relative to SG1 (=1.00)
10 | B10 | 1.33 relative to SG1 (=1.00) | 1.28 relative to SG1 (=1.00)
11 | B11 | 1.37 relative to SG1 (=1.00) | 1.05 relative to SG1 (=1.00)
12 | B12 | 1.13 relative to SG1 (=1.00) | 0.88 relative to SG1 (=1.00)
13 | B13 | 0.99 relative to SG1 (=1.00) | 1.1 relative to SG1 (=1.00)
14 | B14 | 1.12 relative to SG1 (=1.00) | 1.14 relative to SG1 (=1.00)
15 | B15 | 1.76 relative to SG1 (=1.00) | 1.3 relative to SG1 (=1.00)
16 | B16 | 1.69 relative to SG1 (=1.00) | 1.28 relative to SG1 (=1.00)
